Source: patent US20110269113A1 (University of Pennsylvania, published 2011)
Each block holds one molecule with its values, some of them ahead of it. Bridges are numbered along the chain shown (N, C = ends).

Experiments:
[1] = biological target: C5a receptor (C5aR) (human) (UniProt P21730); assay: cell-based or functional assay
[2] = biological target: complement component C3 (native C3) (human, UniProt P01024 23-1663); assay: cell-based or functional assay
complement component C3 (native C3), sequence (P01024 23-1663 limits assumed): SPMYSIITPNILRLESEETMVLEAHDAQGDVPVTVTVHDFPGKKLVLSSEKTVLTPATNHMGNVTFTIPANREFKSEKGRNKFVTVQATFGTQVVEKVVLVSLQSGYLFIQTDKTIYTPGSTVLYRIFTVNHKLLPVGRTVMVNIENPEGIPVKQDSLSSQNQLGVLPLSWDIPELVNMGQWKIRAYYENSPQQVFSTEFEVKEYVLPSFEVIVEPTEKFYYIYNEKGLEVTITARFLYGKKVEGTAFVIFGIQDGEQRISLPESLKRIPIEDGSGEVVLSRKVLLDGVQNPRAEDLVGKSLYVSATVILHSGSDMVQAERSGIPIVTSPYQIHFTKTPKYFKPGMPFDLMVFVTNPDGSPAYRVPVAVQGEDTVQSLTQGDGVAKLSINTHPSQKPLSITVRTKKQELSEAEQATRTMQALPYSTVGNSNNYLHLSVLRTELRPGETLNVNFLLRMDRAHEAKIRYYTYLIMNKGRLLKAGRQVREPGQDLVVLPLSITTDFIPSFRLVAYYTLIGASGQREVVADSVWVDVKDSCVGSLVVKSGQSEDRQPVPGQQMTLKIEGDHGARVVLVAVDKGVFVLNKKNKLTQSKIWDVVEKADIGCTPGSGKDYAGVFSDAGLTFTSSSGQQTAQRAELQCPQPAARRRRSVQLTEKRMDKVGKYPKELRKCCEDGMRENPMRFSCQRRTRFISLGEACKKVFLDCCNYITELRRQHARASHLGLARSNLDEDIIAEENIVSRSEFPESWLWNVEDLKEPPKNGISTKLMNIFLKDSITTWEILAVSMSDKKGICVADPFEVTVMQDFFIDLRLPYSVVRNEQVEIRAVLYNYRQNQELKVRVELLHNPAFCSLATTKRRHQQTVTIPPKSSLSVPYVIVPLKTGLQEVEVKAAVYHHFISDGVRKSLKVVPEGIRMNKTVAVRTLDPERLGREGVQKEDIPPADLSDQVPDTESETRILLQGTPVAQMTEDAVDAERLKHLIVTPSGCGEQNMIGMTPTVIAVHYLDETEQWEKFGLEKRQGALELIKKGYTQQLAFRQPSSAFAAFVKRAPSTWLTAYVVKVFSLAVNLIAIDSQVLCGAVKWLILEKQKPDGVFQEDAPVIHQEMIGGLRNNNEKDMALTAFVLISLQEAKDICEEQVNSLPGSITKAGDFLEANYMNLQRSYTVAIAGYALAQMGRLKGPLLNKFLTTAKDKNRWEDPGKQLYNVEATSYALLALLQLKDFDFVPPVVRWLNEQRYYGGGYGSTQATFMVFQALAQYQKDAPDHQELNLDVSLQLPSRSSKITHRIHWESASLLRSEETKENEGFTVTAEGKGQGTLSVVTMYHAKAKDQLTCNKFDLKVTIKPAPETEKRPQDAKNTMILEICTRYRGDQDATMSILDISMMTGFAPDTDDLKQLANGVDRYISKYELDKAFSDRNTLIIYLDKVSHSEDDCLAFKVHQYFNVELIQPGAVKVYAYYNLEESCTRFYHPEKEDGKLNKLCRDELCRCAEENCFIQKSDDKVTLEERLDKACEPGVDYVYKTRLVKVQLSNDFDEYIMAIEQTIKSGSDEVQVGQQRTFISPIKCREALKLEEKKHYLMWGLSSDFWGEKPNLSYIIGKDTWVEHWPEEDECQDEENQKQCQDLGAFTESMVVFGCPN

C5a receptor (C5aR) (human), sequence (P21730 whole entry): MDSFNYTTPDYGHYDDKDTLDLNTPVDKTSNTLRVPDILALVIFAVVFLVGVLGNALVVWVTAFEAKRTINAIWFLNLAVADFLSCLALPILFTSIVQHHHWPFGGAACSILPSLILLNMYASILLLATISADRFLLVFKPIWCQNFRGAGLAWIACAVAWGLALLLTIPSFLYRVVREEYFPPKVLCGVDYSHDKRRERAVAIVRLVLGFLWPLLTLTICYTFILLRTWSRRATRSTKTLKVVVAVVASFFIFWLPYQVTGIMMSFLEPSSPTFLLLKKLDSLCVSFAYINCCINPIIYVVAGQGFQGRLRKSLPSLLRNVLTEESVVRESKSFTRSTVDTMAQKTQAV

TF mRNA expression in PMNs (real time RT-PCR) after C5aR antagonism (fold decrease) [1]: 2.14
modified prothrombin time (mPT) of PMN supernatants; healthy serum preincubated with filter fibers, with C5aR antagonist [1]: 29.1 s
modified prothrombin time (mPT) of PMN supernatants; predialysis ESRD serum preincubated with filter fibers, with C5aR antagonist [1]: 26.1 s
modified prothrombin time (mPT) of supernatants of PMNs preincubated with C5aR antagonist (10 µM-30 min) [1]: 31.6 s
Molecule: small cyclic hexapeptide (AcF-[OPdChaWR]), selective C5aR antagonist

TF mRNA expression in PMNs (real time RT-PCR) after Compstatin addition [2]: 2.79 fold decrease
intracellular TF protein in PMNs, MFI fold expression (flow cytometry); fiber-activated healthy serum blocked with Compstatin [2]: 1.01 MFI fold expression
B1: Compstatin, a 13-residue cyclic peptide (Ac-I[CVWQDWGAHRTC]TNH2) (peptide)
peptide: Ac-ICVWQDWGAHRTCT-NH2
modifications: disulfide 2-13
SMILES: CC[C@H](C)[C@H](NC(C)=O)C(=O)N[C@H]1CSSC[C@@H](C(=O)N[C@H](C(N)=O)[C@@H](C)O)NC(=O)[C@H]([C@@H](C)O)NC(=O)[C@H](CCCNC(=N)N)NC(=O)[C@H](Cc2c[nH]cn2)NC(=O)[C@H](C)NC(=O)CNC(=O)[C@H](Cc2c[nH]c3ccccc23)NC(=O)[C@H](CC(=O)O)NC(=O)[C@H](CCC(N)=O)NC(=O)[C@H](Cc2c[nH]c3ccccc23)NC(=O)[C@H](C(C)C)NC1=O
